Data set [1] has as its target N-terminally His6-tagged NusA^AR2 (E. coli) (UniProt P0AFF6). As to the kind of experiment: SPR; Biacore, Sensor Chip NTA, 20°C; N-terminally His6-tagged NusA^AR2 immobilised; single cycle kinetics with SuhB variants at 25, 50, 100, 150 and 200 nM; 20 mM HEPES–NaOH pH 7.5, 50 mM NaCl, 1 mM DTT. In general terms: SPR reads the build-up and loss of mass on a sensor chip optically.

Data set [2] concerns SuhB (Escherichia coli DH5α). As to the kind of experiment: double filter binding. The settings on record: Hill slope fit, 50 nM RNA, Filter binding: 20 mM HEPES-NaOH pH 7.5, 50 mM NaCl, 1 mM DTT, room temperature, 20 min, SEC buffer not in material.

Among the data in PMC6614801 are Kd values, retold here.

Usually Kd stands for a measure of binding affinity in units of concentration. Read a high Kd as a looser complex. Regarding “SuhB^KL251/254AA (from UniProt P0ADG4 1-267) (natural protein)”, in data set [1], the Kd worked out at 141 µM.
In data set [2], rrnGnut RNA returned an equilibrium dissociation constant (Kd) of 3.2 µM.
